T1: SopA (163–782) (S. Typhimurium, UniProt Q8ZNR3 163-782)
T1 construct: also called SopA WT; source: bacterially expressed, purified (Talon beads, size exclusion)
T1 sequence: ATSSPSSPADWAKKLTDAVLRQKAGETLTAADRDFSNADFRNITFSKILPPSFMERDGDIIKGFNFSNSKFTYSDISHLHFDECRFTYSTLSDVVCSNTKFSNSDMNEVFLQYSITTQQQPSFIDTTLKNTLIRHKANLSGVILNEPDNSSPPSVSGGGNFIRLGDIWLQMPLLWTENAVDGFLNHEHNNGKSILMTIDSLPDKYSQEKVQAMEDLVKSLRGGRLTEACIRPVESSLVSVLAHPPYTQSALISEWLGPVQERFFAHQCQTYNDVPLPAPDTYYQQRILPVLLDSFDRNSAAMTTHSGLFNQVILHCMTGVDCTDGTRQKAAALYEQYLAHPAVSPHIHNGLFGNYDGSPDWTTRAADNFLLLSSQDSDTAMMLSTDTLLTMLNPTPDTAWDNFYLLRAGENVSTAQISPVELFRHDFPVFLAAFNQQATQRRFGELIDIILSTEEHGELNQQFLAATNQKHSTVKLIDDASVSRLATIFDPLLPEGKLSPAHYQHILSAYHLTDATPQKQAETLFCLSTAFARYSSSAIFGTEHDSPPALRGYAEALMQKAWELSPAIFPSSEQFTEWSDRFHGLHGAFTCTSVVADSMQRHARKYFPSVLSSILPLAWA

T2: GST-SopA (S. Typhimurium, UniProt Q8ZNR3 1-782)
T2 construct: also called recombinant SopA; source: E. coli BL21 (DE3), purified on glutathione sepharose 4B beads; not shown: GST, N-terminal, kept
T2 sequence: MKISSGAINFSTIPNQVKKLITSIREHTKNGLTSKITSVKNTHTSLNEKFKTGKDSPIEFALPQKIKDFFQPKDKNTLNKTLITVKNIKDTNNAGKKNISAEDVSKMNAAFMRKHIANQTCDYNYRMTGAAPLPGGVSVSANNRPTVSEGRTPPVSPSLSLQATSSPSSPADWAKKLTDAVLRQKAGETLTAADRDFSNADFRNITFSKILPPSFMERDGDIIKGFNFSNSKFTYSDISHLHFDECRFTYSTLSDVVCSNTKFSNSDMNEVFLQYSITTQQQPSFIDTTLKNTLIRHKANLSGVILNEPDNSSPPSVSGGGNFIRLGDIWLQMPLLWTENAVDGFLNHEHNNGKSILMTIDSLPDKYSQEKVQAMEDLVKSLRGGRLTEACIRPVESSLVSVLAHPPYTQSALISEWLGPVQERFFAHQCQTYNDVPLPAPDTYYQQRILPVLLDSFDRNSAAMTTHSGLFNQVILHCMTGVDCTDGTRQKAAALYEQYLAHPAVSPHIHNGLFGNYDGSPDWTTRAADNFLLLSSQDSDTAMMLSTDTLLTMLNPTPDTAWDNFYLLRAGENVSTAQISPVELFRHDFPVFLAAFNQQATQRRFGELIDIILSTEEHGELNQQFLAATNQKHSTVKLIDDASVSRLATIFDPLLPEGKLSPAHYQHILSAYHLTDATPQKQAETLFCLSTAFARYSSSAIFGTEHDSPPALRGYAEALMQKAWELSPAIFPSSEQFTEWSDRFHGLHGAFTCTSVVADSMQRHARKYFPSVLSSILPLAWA

B1: TRIM56 (1–94) (domain or fragment, human, UniProt Q9BRZ2 1-94, looked up)
chain: MVSHGSSPSLLEALSSDFLACKICLEQLRAPKTLPCLHTYCQDCLAQLADGGRVRCPECRETVPVPPEGVASFKTNFFVNGLLDLVKARACGDL
notes: TRIM56, human, RING domain, residues 1-94; in the crystal this stretch stood N-terminal on one chain with SopA (163–425); also called TRIM56 RING domain; TRIM56 RING
B2: MBP-TRIM56 (natural protein, human, UniProt Q9BRZ2 1-755, looked up)
chain: MVSHGSSPSLLEALSSDFLACKICLEQLRAPKTLPCLHTYCQDCLAQLADGGRVRCPECRETVPVPPEGVASFKTNFFVNGLLDLVKARACGDLRAGKPACALCPLVGGTSTGGPATARCLDCADDLCQACADGHRCTRQTHTHRVVDLVGYRAGWYDEEARERQAAQCPQHPGEALRFLCQPCSQLLCRECRLDPHLDHPCLPLAEAVRARRPGLEGLLAGVDNNLVELEAARRVEKEALARLREQAARVGTQVEEAAEGVLRALLAQKQEVLGQLRAHVEAAEEAARERLAELEGREQVARAAAAFARRVLSLGREAEILSLEGAIAQRLRQLQGCPWAPGPAPCLLPQLELHPGLLDKNCHLLRLSFEEQQPQKDGGKDGAGTQGGEESQSRREDEPKTERQGGVQPQAGDGAQTPKEEKAQTTREEGAQTLEEDRAQTPHEDGGPQPHRGGRPNKKKKFKGRLKSISREPSPALGPNLDGSGLLPRPIFYCSFPTRMPGDKRSPRITGLCPFGPREILVADEQNRALKRFSLNGDYKGTVPVPEGCSPCSVAALQSAVAFSASARLYLINPNGEVQWRRALSLSQASHAVAALPSGDRVAVSVAGHVEVYNMEGSLATRFIPGGKASRGLRALVFLTTSPQGHFVGSDWQQNSVVICDGLGQVVGEYKGPGLHGCQPGSVSVDKKGYIFLTLREVNKVVILDPKGSLLGDFLTAYHGLEKPRVTTMVDGRYLVVSLSNGTIHIFRVRSPDS
notes: TRIM56, human, full length, in pMAL-C2X; also called recombinant TRIM56; not shown: MBP, N-terminal, kept

What was measured:
SopA (163–782) = biological target: T1, SopA (163–782); assay: ITC; 1 mM TRIM56 (1–94) injected into 20 μM SopA (163–782) in the cell, 25 °C, 10 mM HEPES, 100 mM NaCl, 1 mM TCEP; VP-ITC; settings: both partners purified
GST-SopA = biological target: T2, GST-SopA; assay: pull-down; settings: both partners purified

| Binder | Kd (SopA (163–782)) | binding result (GST-SopA) |
| --- | --- | --- |
| B1 | ~9 µM | – |
| B2 | – | binds |
